Reference: PMC6701862 (Science (New York, N.Y.), 2019)

Target: GluA2 subunit of native AMPA receptors (nAMPAR) from rat brain (rat (endogenous in rat brain), UniProt P19491)
Experiment: cryo-EM structure

Sequence of GluA2 subunit of native AMPA receptors (nAMPAR) from rat brain (P19491 22-883): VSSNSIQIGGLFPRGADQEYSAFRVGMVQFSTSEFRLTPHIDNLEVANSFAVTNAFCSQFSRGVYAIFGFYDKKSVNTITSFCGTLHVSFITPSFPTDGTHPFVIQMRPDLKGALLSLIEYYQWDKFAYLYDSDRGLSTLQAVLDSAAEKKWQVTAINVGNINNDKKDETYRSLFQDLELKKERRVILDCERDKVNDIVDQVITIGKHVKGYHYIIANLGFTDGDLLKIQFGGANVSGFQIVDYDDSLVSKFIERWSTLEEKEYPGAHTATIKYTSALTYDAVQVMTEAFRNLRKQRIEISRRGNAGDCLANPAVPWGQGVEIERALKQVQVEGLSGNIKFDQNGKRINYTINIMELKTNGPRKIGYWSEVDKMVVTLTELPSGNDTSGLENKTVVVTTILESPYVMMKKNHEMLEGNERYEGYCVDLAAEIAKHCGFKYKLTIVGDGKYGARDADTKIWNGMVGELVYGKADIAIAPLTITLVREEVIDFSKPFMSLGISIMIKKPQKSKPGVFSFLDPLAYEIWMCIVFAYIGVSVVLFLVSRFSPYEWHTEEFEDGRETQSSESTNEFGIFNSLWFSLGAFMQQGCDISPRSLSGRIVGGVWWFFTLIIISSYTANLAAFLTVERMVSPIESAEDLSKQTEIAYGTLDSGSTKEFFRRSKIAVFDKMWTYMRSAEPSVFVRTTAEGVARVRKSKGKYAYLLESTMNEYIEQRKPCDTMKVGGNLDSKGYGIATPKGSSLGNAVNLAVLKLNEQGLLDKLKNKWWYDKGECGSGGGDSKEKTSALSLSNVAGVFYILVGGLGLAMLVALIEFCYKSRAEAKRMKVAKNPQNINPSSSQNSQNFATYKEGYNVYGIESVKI

B1: 15F1 Fab, anti-GluA2 (Fab, V domains shown)
VH: QAQLKESGPGLVAPSQSLSITCTVSGFSLTNYGVHWVRQPPGKGLEWLGVIWAGGSTNYNSALMSRVSISKDNSKSQVFLKMNSLQTDDTVMYYCAREDYDYDWHFDVWGAGTTVTVSS
VL: EIQMTQTTSSLSASLGDRVTISCRASQDISNYLSWYQQKPDGTVKLLIYYTSRLHSGVPSRFSGSGSGIDYSLTINNLEQEDFATYFCQQGNTLPLTFGAGTKLELK
**Q.** Does B1 bind?
**A.** binds
